The source of these data is FireProtDB (doi:10.1002/cbic.201402128).

B1: Haloalkane dehalogenase, D4Z2G1 (parent)
chain: MSLGAKPFGEKKFIEIKGRRMAYIDEGTGDPILFQHGNPTSSYLWRNIMPHCAGLGRLIACDLIGMGDSDKLDPSGPERYAYAEHRDYLDALWEALDLGDRVVLVVHDWGSALGFDWARRHRERVQGIAYMEAIAMPIEWADFPEQDRDLFQAFRSQAGEELVLQDNVFVEQVLPGLILRPLSEAEMAAYREPFLAAGEARRPTLSWPRQIPIAGTPADVVAIARDYAGWLSESPIPKLFINAEPGALTTGRMRDFCRTWPNQTEITVAGAHFIQEDSPDEIGAAIAAFVRRLRPA

The variants in the data set derive from B1. The conditions noted are these: Sphingobium indicum (strain DSM 16413 / CCM 7287 / MTCC 6362 / UT26 / NBRC 101211 / UT26S); pH 7.5; Thermal; fluorescence; Na-Hepes 50 mM; reversible: no; structure 1MJ5; whole UniProt chain shown.

Values joined by “and” are separate entries in the source; they are usually repeats but may differ in a detail not shown here. Equal entries are not always repeated.

In general, Tm refers to the temperature at which the thermal transition is half complete. Consider MSLGAKPFGEKKFIEIKGRRMAYIDEGTGDPILFQHGNPTSSYLWRNIMPHCAGLGRLIACDLIGMGDSDKLDPSGPERYAYAEHRDYLDALWEALDLGDRVVLVVHDWGSALGFDWARRHRERVQGIAYMEAIAMPIEWADFPEQDRDLFQAFRSQAGEELVLQDNVFVEQVLPGLILRPLSEAEMAAYREPFLAAGEARRPTLSWPRQIPIAGTPADVVAIARDYAGWLSESPIPKLFINAEPGFLTTGRMRDFCRTWPNQTEITVAGAHFIQEDSPDEIGAAIAAFVRRLRPA [A247F], for which the melting temperature (Tm) was 67.5 °C and the “change of melting temperature, mutant - wild type (higher = more stable)” value (“change of melting temperature, mutant” below) turned out to be 16.5 °C.

Consider MSLGAKPFGEKKFIEIKGRRMAYIDEGTGDPILFQHGNPTSSYLWRNIMPHCAGLGRLIACDLIGMGDSDKLDPSGPERYAYAEHRDYLDALWEALDLGDRVVLVVHDWGSALGFDWARRHRERVQGIAYMEAIAMPIEWADFPEQDRDLFQAFRSQAGEELVLQDNVFVEQVLPGLILRPLSEAEMAAYREPFLAAGEARRPTLSWPRQIPIAGTPADVVAIARDYAGWLSESPIPKLFINAEPGAWTTGRMRDFCRTWPNQTEITVAGAHFIQEDSPDEIGAAIAAFVRRLRPA [L248W], for which the Tm stood at 62 °C and the “change of melting temperature, mutant” value is 11 °C.

For the variant MSLGAKPFGEKKFIEIKGRLMAYIDEGTGDPILFQHGNPTSSYLWRNIMPHCAGLGRLIACDLIGMGDSDKLDPSGPERYAYAEHRDYLDALWEALDLGDRVVLVVHDWGSALGFDWARRHRERVQGIAYMEAIAMPIEWADFPEQDRDLFQAFRSQAGEELVLQDNVFVEQVLPGLILRPLSEAEMAAYREPFLAAGEARRPTLSWPRQIPIAGTPADVVAIARDYAGWLSESPIPKLFINAEPGALTTGRMRDFCRTWPNQTEITVAGAHFIQEDSPDEIGAAIAAFVRRLRPA [R20L], the melting temperature (Tm) came out at 50 °C and the “change of melting temperature, mutant” value was -1 °C.

Take MSLGAKPFGEKKFIEIKGRRMAYIDEGTGDPILFQHGNPTSSYLWRNIMPHCAGLGRLIACDLIGMGDSDKLDPSGPERYAYAEHRDYLDALWEALDLGDRVVLVVHDWGSALGFDWARRHRERVQGIAYMEAIAMPIEWADFPEQDRDLFQAFRSQAGEELVLQDNVFVEQVLPGLILRPLSEAEMAAYREPFLAAGEARRPTLSWPRQIPIAGTPADVVAIARDYAGWLSESPIPKLFINAEPGALTTGRMRKFCRTWPNQTEITVAGAHFIQEDSPDEIGAAIAAFVRRLRPA [D255K]: the Tm was determined as 50.5 °C and the “change of melting temperature, mutant” value is -0.5 °C.

Take MSLGAKPFGEKKFIEIKGRRMAYIDRGTGDPILFQHGNPTSSYLWRNIMPHCAGLGRLIACDLIGMGDSDKLDPSGPERYAYAEHRDYLDALWEALDLGDRVVLVVHDWGSALGFDWARRHRERVQGIAYMEAIAMPIEWADFPEQDRDLFQAFRSQAGEELVLQDNVFVEQVLPGLILRPLSEAEMAAYREPFLAAGEARRPTLSWPRQIPIAGTPADVVAIARDYAGWLSESPIPKLFINAEPGALTTGRMRDFCRTWPNQTEITVAGAHFIQEDSPDEIGAAIAAFVRRLRPA [E26R]: the Tm worked out at 50 °C and the “change of melting temperature, mutant” value is -1 °C.

With MSLGAKPFGEKKFIEIKGRRMAYIDEGTGDPILFQHGNPTSSYLWRNIMPHCAGLGRLIACDLIGMGDSDKLDPSGPERYAYAEHRDYLDALWEALDLGDRVVLVVHDWGSALGFDWARRHRERVQGIAYMEAIAMPIEWADFPEQDRDLFQAFRSQAGEELVLQDNVFVEQVLPGLILRPLSEAEMAAYREPFLAAGEARRPTLSWPRQIPIAGTPPDVVAIARDYAGWLSESPIPKLFINAEPGALTTGRMRDFCRTWPNQTEITVAGAHFIQEDSPDEIGAAIAAFVRRLRPA [A218P], the Tm worked out at 51.5 °C and the “change of melting temperature, mutant” value was 0.5 °C.

Regarding MSLGAKPFGEKKFIEIKGRRMAYIDEGTGDPILFQHGNPTSSYLWRNIMPHCAGLGRLIACDLIGMGDSDKLDPSGPERYAYAEHRDYLDALWEALDLGDRVVLVVHDWGSALGFDWARRHRERVQGIAYMEAIAMPIEWADFPEQDRDLFQAFRSQAGEELVLQDNVFVEQVLPGLILRPLSEAEMAAYREPFLAAGEARRPTLSWPRQIPIAGTPADVVAIARDYAGWLSESPIPKLFINAEPGALTTGRMRDFCRTWPNQTEITVAGAHFIQEDSPDEIGAAIAAFVRRLRPH [A296H], the Tm is 50 °C and the “change of melting temperature, mutant” value is -1 °C.

With MSLGAKPFGEKKFIEIKGRRMAYIDEGTGDPILFQHGNPTSSYLWRNIMPHCAGLGRLIACDLIGMGDSDKLDPSGPERYAYAEHRDYLDALWEALDLGDRVVLVVHDWGSALGFDWARRHRERVQGIAYMEAIAMPIEWADFPEQDRDLFQAFRSQAGEELVLQDNVFVEQVLPGLILRPLDEAEMAAYREPFLAAGEARRPTLSWPRQIPIAGTPADVVAIARDYAGWLSESPIPKLFINAEPGALTTGRMRDFCRTWPNQTEITVAGAHFIQEDSPDEIGAAIAAFVRRLRPA [S183D], the Tm is 50 °C and the “change of melting temperature, mutant” value is -1 °C.

As for MSLGAKPFGEKKFIEIKGRRMAYIDEGTGDPILFQHGNPTSSYLWRNIMPHCAGLGRLIACDLIGMGDSDKLDPCGPECYAYAEHRDYLDALWEALDLGDRVVLVVHDWGSALGFDWARRHRERVQGIAYMEAIAMPIEWADFPEQDRDLFQAFRSQAGEELVLQDNVFVEQVLPGLILRPLSEAEMAAYREPFLAAGEARRPTLSWPRQIPIAGTPADVVAIARDYAGWLSESPIPKLFINAEPGALTTGRMRDFCRTWPNQTEITVAGAHFIQEDSPDEIGAAIAAFVRRLRPA [S75C R79C], the Tm is 45.5 °C and 44 °C; the “change of melting temperature, mutant” value was -5.5 °C and -5 °C.

For the variant MSLGAKPFGEKKFIEIKGRRMAYIDEGTGDPILFQHGNPTSSYLWRNIMPHCAGLGRLIACDLIGMGDSDKLDPSGPERYAYAEHRDYLDALWEALDLGDRVVLVVHDWGSALGFDWARRHRERVQGIAYMEAIAMPIEWADFPEQDRDLFQAFRSQAGEELVLQDNVFVEQVLPGLILRPLSEAEMAAYREPFLAAGEARRPTLSWPRQIPIAGTPAQVVAIARDYAGWLSESPIPKLFINAEPGALTTGRMRDFCRTWPNQTEITVAGAHFIQEDSPDEIGAAIAAFVRRLRPA [D219Q], the Tm amounted to 50 °C and the “change of melting temperature, mutant” value was -1 °C.
